In PMC10730160 (mAbs, 2023):

Experiments:
[1] = molecular target: human CTLA-4, wild type, on CHO-K1 cells (human, UniProt P16410); test: flow cytometry on cells
[2] = molecular target: mouse CTLA-4, on CHO-K1 cells (Mus musculus, UniProt P09793); test: ELISA
[3] = molecular target: CTLA-4 antigen (in solution, for HDX-MS and cross-linking) (human, UniProt P16410); test: HDX-MS
Chain of CTLA-4 antigen (in solution, for HDX-MS and cross-linking) (P16410 36-223): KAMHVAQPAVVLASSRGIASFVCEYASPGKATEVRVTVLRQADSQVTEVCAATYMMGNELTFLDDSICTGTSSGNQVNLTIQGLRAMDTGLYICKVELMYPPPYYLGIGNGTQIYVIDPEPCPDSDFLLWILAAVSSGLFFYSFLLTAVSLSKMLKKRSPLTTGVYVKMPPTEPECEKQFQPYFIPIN

Chain of human CTLA-4, wild type, on CHO-K1 cells (P16410 36-223): as above

B1: tremelimumab (antibody, V domains shown)
VH: QVQLVESGGGVVQPGRSLRLSCAASGFTFSSYGMHWVRQAPGKGLEWVAVIWYDGSNKYYADSVKGRFTISRDNSKNTLYLQMNSLRAEDTAVYYCARDPRGATLYYYYYGMDVWGQGTTVTVSS
VL: DIQMTQSPSSLSASVGDRVTITCRASQSINSYLDWYQQKPGKAPKLLIYAASSLQSGVPSRFSGSGSGTDFTLTISSLQPEDFATYYCQQYYSTPFTFGPGTKVEIK
B1: binds [1]; no binding [2]; binds [3].
